From patent US20210253725A1 (BIONTECH, published 2021)

What was measured:
[1] = target: T1, CD134 protein (His-tagged, Sino Biological Inc. 10481-H08H) (human, UniProt P43489 29-216); assay: ELISA, coated His-tagged CD134; also: test concentration or dose not given here
T1 construct: bought protein coated on ELISA plates; also called OX40; TNFRSF4; not shown: His tag
T1 sequence (looked up): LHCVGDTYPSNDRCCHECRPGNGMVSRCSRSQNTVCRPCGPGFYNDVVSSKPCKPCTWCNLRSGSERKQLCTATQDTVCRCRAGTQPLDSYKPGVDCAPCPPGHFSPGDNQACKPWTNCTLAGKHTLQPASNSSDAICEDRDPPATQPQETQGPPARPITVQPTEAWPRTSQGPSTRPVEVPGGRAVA

[2] = target: T2, CD134 expressed on the cell surface of HT1080_OX40 cells (human, UniProt P43489 29-277); assay: HT1080_OX40 cells, imaging; also: test concentration or dose not given here
T2 construct: whole, on cells; species not restated for the HT1080 transfectant
T2 sequence (looked up): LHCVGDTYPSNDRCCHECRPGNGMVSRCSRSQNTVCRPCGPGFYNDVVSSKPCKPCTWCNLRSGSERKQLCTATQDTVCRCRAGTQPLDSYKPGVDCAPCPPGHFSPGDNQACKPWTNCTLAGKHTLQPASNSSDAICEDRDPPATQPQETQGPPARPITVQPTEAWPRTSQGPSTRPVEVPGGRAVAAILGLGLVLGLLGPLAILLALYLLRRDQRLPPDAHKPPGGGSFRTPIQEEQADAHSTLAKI

[3] = target: T2, CD134 expressed on the cell surface of …; assay: cell-based or functional assay
[4] = target: T2, CD134 expressed on the cell surface of …; assay: cell-based or functional assay; remark: listed apart in the source
human 4-1BB (CD137) = human 4-1BB (CD137) (human, UniProt Q07011 24-255); assay: cell-based or functional assay
Chain of human 4-1BB (CD137) (Q07011 24-255): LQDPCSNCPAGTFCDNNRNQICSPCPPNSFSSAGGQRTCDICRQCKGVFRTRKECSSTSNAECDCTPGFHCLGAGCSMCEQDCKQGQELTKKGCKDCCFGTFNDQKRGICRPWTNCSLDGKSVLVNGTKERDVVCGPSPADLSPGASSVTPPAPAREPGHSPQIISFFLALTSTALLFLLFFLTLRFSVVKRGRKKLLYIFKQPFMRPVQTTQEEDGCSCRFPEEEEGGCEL
For Functional assay Cross-linked by F(ab′)2 fragment IL-8 in this document: test concentration or dose not given here.
For Functional assay IL-8 in this document: test concentration or dose not given here.

| Binder | ELISA [abs. corr.] [1] | Cellular binding assay [RFU] [2] | Functional assay Cross-linked by F(ab′)2 fragment IL-8 [3] | Functional assay IL-8 [3] | EC 50 (IL-8 release, cross-linked) [4] | EC 50 [ng/mL] of agonistic function (IL-8 release from CD137-overexpressing HT1080 cells, antibody cross-linked by F(ab')2 goat anti-human IgG) (human 4-1BB (CD137)) |
| --- | --- | --- | --- | --- | --- | --- |
| P018.S.12.A.C01 (antibody, V domains shown, V regions on human Ig constant parts; also called AB134_61) VH: QEQLKESGGGLVTPGGTLTLTCTASGFTFSSHAMGWVRQAPGKGLEWIGKIYDDGTTFYANWAKGRFTISRTSTTVDLKMTSLTTEDTATYFCLRGYNSGFNFWGQGTLVTVSS VL: AQVLTQTPASVSAAVGGTVTISCQSSESVYNNNFLAWYQQKPGQPPKLLIYLASTLASGVPSRFSGSGSGTEFTLTISDLDSDDAATYYCAGGYDDNVYGFGGGTEVVVK | 2.49 abs. corr. | 496 RFU | 2.06 abs. corr. | -0.026 abs. corr. | 432 ng/mL | – |
| P018.S.13.A.C02 (antibody, V domains shown) VH: QSVEESGGRLVTPGTPLTLTCTVSGFSLSSYAMSWVRQAPGKGLEWIGIISTSGITYYASWAKGRFTISKTSTMVDLKITSPTTEDTATYFCARLNGFDDYVRYFDFWGLGTLVTVSS VL: AIELTQTPSSVSAAVGGTVTINCQASESIASNLAWYQQKPGQPPKLLIYAASYLASGVPSRFKGSGSGTEYTLTISGVQSADAATYYCQSAFYVSSSDNAFGGGTEVVVK | – | – | – | – | – | 3500 ng/mL |
| P018.S.08.A.E03 (antibody, V domains shown) VH: QSVEESGGRLVTPGTPLTLTCTVSGFSLTYYAVTWVRQPPGKGLEWIGVIYDNGATAFATWAKGRFTMSKNSTTVALKVTSPTTEDTATYFCARSANNAWSTYSNLWGQGTLVTVSS VL: DIVMTQTPSSVSAAVGGTVTINCQASEDISSYLSWYQQKLGQPPKLLIYKASTLESGVPSRFKGSGSGTEYTLTISDLESDDAATYYCQSYYSGSISGYGFVFGGGTGVVVK | – | – | – | – | – | 4960 ng/mL |
| P018.S.12.A.B05 (antibody, V domains shown, V regions on human Ig constant parts; also called AB134_59) VH: QQQLVESGGGLVKPGASLTLTCKASGFFFSGSYYMCWVRQAPGKGLEWIACIYTGSDDDTNYASWAKGRFTISKTSSTTVTLQMTSLTAADTATYFCARRNYDTDWGGDLWGPGTLVTVSS VL: AVVLTQTPASVEAAVGGTVTIKCQASQSIGSSLAWYQQKPGQRPKLLIYYASNLASGVSSRFKGSGSGTQFTLTISDLESADAATYYCQCTYTSSDYLDAFGGGTEVVVK | 2.1 abs. corr. | 536 RFU | 2.15 abs. corr. | 0.96 abs. corr. | 102 ng/mL | – |
| P018.S.11.A.D03 (antibody, V domains shown, V regions on human Ig constant parts; also called AB134_30) VH: QEQLKETGGGLVQPGGSLTLSCKASGFDFSSGYMSWVRQAPGKGLEWIGYIDPVFGSTYYASWVNGRFAISSHNAQNTLYLQLNSLTAADTATYFCARDLRAFYSGWGGINLWGPGTLVTVSS VL: AAVLTQTPSPVSAAVGGTVTIKCQSSQIVVNNNFLSWYQQKPGQPPKLLIYDASNLASGVPDRFSGSGSGTQFTLTISGVQSDDAATYYCLGGYDDDAENAFGGGTEVVVQ | 1.99 abs. corr. | 482 RFU | 1.86 abs. corr. | 2.24 abs. corr. | 176 ng/mL | – |
| P018.S.12.A.F03 (antibody, V domains shown, V regions on human Ig constant parts; also called AB134_79) VH: QSLEESGGRLVAPGTPLTLTCTVSGIDLSRYAMGWVRQAPGKGLEYIGIIDDNDITYFATWAKGRFTISKTSTTLGLKITSPTTEDTATYFCARTADYADYSFGLWGPGTLVTVSS VL: DVVMTQTPTSVSEPVGGTVTIKCQASENIGNYLAWYQQRPGQRPKLLIYAASNLASGVPSRFKGSGSGTEYALTISDLESDDAATYYCQCTYDDSEYFVFGGGTEVVVK | 2.45 abs. corr. | 485 RFU | 2.15 abs. corr. | 0.527 abs. corr. | 1630 ng/mL | – |
| P018.S.13.A.A05 (antibody, V domains shown) VH: QSLEESGGRLVTPGTPLTLTCTASGFSLSRYDMSWVRQAPGKGLEYIGVISSSGGTNYANWAKGRFTISKTSTTVDLKITSPTTEDTATYFCAREGDYWDFNLWGPGTLVTVSS VL: AQVLTQTPSSVSAAVGGTVTINCQASQSISNLLAWYQQKPGQPPKLLIYGASTLASGVPSRFSGSGSGTEFTLTISDLESDDAATYYCAGGFPGLDTVAAFGGGTEAVVT | – | – | – | – | – | 3720 ng/mL |
| P018.S.08.A.A04 (antibody, V domains shown) VH: QSVEESGGRLVTPGTPLTLTCTVSGFSLSSYAVSWVRQAPGKGLEWIGVIWNNGATHYATWAKGRFTISKASTTVDLKVTSPTTEDTATYFCARSANDAWSTYSDLWGQGTLVTVSS VL: DIVMTQTPASVEAAVGGTVTIKCQASQTITNYLSWYQQKPGQPPKLLIYKASTLTSGVSSRFKGSGSGTEFTLTISDLESDDAATYYCQNYYYGSSSGYGFVFGGGTEVVVK | – | – | – | – | – | 5150 ng/mL |
| P018.S.11.A.G03 (antibody, V domains shown, V regions on human Ig constant parts; also called AB134_43) VH: QSLEESGGRLVTPGTPLTLTCTASGFSLTNYAMNWVRQAPGKGLEWIGFINYDGNTYYANWAKGRFTISRTSTTVDLKITSPTTEDTATYFCARGGDGYTHIPDTFDPWGPGTLVTVSS VL: AFEMTQTPSSVSVAVGGTVTIKCQASQSIYSYLSWYQQKPGQPPKLLIYYASTLASGVPSRFVGSGSGTQFTLTISGVESADAATYYCQQGYSYSNIDNVFGGGTEMVVK | 2.11 abs. corr. | 450 RFU | 2.1 abs. corr. | 1.57 abs. corr. | 894 ng/mL | – |
| P018.S.12.A.D05 (antibody, V domains shown, V regions on human Ig constant parts; also called AB134_70) VH: QEQLKESGGGVVTPGGTLTLTCTASAFSLNHYNIQWVRQAPGKGLEWIGWILTDGTEYYANWAKGRFTISKTSTTVDLKIASPTTEDTATYFCAREGDWGVDSLWGPGTLVTVSS VL: ALVMTQTPSPVSAAVGGTVTISCQSSQSVDNNDFLSWYQQKPGQPPKLLIYLASKLASGVPSRFSGSGSGTQFTLTISGVQSDDAATYYCKGLYFDSGWYAAFGGGTEVVVE | 2.13 abs. corr. | 451 RFU | 2.15 abs. corr. | -0.007 abs. corr. | 2400 ng/mL | – |
| P018.S.13.A.G03 (antibody, V domains shown) VH: QSLEESGGRLVTPGTPLTLTCTASGFSLSSYDVSWVRQAPGKGLEYIGFIGSDGSAHYATWVKGRFTISKTSTTVDLKITSPTTEDTATYFCARDWNDYWAHDLWGPGTLVTVSS VL: AQVLTQTTSPVSAAVGGTVTINCQASQIVTSKSALSWYQQKPGQPPRLLIYKASTLASGVPSRFSGSGSGTQFTLTISDLESDDAATYYCAGGYYNSGDLNPFGGGTEVVVK | – | – | – | – | – | 4780 ng/mL |
| P018.S.14.A.G03 (antibody, V domains shown) VH: QSLEESGGRLVTPGTPLTLTCTVSGIDLSSYHMCWVRQAPGKGLEYIGYIAYGGNTYYANWAKGRFTISKTSTTVDLRITSPTTEDTATYFCARGYSEDSYWGLWGPGTLVTVSS VL: AYDMTQTPASVEAAVGGTVTIKCQASQNIENYLAWYQQKPGQPPKLLIYDTSKLTSGVPSRFSGSGSGTDFTLTISGVQSDDAATYYCQQDYGIIFVDNIFGGGTEVVVK | – | – | – | – | – | 3500 ng/mL |
| P018.S.08.A.F03 (antibody, V domains shown) VH: QSVEESGGRLVTPGTPLTLTCTASGFTISSYHMIWVRQAPGEGLEWIGDIYGGTATTDYASWAKGRFTISKTSTTVDLKMTSLTTEDTATYFCARARYSGGSYANYVFNLWGQGTLVTVSS VL: DIVMTQTPASVEAAVGGTVTIKCQASQSISSYLAWYQQKPGQPPKLLIYRTSTLESGVPSRFKGSGSGTEFTLTISDLESADAATYYCQGYDWSSSNRYDNTFGGGTEVVVK | – | – | – | – | – | 2710 ng/mL |
| P018.S.05.A.F05 (as anti-CD134 antibody) (antibody, V domains shown, V regions on human Ig constant parts; also called AB134_16) VH: QSVEESGGRLVTPGTPLTLTCTVSGFSLSNYYMTWVRQAPGKGLEYIGIIGSGVSTYYANWAKGRFTISKASSTTVDLKMTSPTTEDTATYFCARDMYVGNWGDWGLWGQGTLVTVSS VL: AYDMTQTPASVEVAVGGTVTIKCQASQSISNNLNWYQQKPGQPPKLLIYSVSTLASGVPSRFKGSGSGTDYTLTISGVESVDAATYYCQQDYRIGDLDSAFGGGTEVVVK | 2.41 abs. corr. | 392 RFU | 1.71 abs. corr. | 0.187 abs. corr. | 7120 ng/mL | – |
| P018.S.02.A.H03 (antibody, V domains shown, V regions on human Ig constant parts; also called AB134_3) VH: QSLEESGGRLVTPGGSLTLTCTVSGIDLSSYGMGWVRQAPGKGLEWIGTISYGGSTFYANWVKGRFTISKTSTTVDLKVTSLTTEDAATYFCAREVPYWSLWGQGTLVTVSS VL: AYDMTQTPASVAAAVGGTVTIKCQASQSIGSDLSWYQQKRGQPPKLLIYDASTLASGVPSRFKGSGSGTEFTLTISDVQSADAATVYCQQDYSYRNVDNTFGGGTEVVVK | 0.468 abs. corr. | 198 RFU | 1.95 abs. corr. | 2.56 abs. corr. | 215 ng/mL | – |
